Measurements published in the nanobody polyreactivity screen of Harvey et al. (2022).

Assay: yeast display, Sf9 membrane polyspecificity reagent, FACS + sequencing; frameworks hold sequencing errors
Method in brief: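 Using colony PCR, genes from sorted yeast display clones were amplified, then sequenced on MiSeq at 2 × 250 and filtered by CDR length. The clones had been stained with 10% biotinylated, detergent-solubilized Sf9 membrane reagent for 1 hour at 4 °C and sorted by FACS into low and high (top ~1%) gates on anti-HA and streptavidin fluorescence. Polyreactivity labels come from the gate of origin.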

Row | Sequence | polyreactivity (PSR sort gate)
1 | QVQLVESVGGLLQAGGSLRLSCDASGSIFADYAMGWYRQAPGKERELVAVITSSGGSTNYADSVKGRFTISRDNAKNTVYLQMNSLKPEDTAVYYCNRRPYPSYDYWGQGTQVTVSS | low polyreactivity
2 | QVQLVESVGGLVHAGGSLRLSCAASGRTFGYNAMGWYRQATGKERELVAAISFRGGTTYYADSVKGRFTISRDNAKITVYLQMNCLIPEDPSVYYCAARYYYRYTGGRLDYWGQGTQVTVSS | high polyreactivity
3 | QVQLVESVGGLVHAGGSLRLSCAASGSTFRYNAMGWYRQAPGKDRELVAAISWSGGSTYYADSVKGRFTISRDNAKNTVYFQMNSLIPEDTAVYYCAKVYFWGALSPDKYDEDYWGQGTQVTVSS | low polyreactivity
4 | QVQLVESVGGLVKAGGSLRLSCAASGRTFYNAMGWYRQAPGKERELVAAISSDGSTYYADSVKGRFTISRDNAKNTVYLQMNSLKPEDTAVYYCARDLGSWYYQVRFGYWGQGTQVTVSS | high polyreactivity
5 | QVQLVESVGGLVLAGGSLRLSCAASGFTFPRYVMGSYRPAPGKAREFVAAITFSGGSTYYADSVKGRFTIARDNAKNTVYLQMNSLKPEDTAVYYCAAGASLWRLGLKRGYWGQGTQVTVSS | low polyreactivity
6 | QVQLVESVGGLVQAGASLPLSCAASGRIFPYYAMGWYRQAPGKESEFVAAITKRGGSTSYADSVKGRFTISRDNAKNTVYLQMNSLKPEDTAVYYCAARRGSGFFTYYGGAFWGQGTLVTVSS | low polyreactivity
7 | QVQLVESVGGLVQAGASLRLSCAASGLNIYTYAMGWYRQAPGKERELVAAIRWRGGRTYYADSVNGRFTISRDNAKNTVYLQMNSLKPEDTAVYYCAADYSNLYKSDYWGQGTQVTLSS | low polyreactivity
8 | QVQLVESVGGLVQAGCTLPLSCAASGLIFYLYAMGWYRQATGKERELVARISRGGSTNYADSVKGRFTISRDNAKNTVYLQMNSLNPDDTAVYYCAADWFFSLGEMYYWGQGTQVTVSS | low polyreactivity
9 | QVQLVESVGGLVQAGGRLRLSCAASGSTFPRYTRGWYRQAPGKERELVAAISSRGGSTIYADSVKGRFTNSRDNAMNTVYLEMNSLKPEDSAVYYCAARRASRDGYWGQGTQVTVSS | high polyreactivity
10 | QVQLVESVGGLVQAGGSLPLSCAASGRTFTSYAMGWYRQAPGKERELVAAINYSGGSTYYADSVKGRFTISRDNAKNTVYLQMNSLKPEETAVYYCAKSSHAREYYYWGQGTQVTVSS | low polyreactivity
11 | QVQLVESVGGLVQAGGSLRIICAASGSIFTDNAMGWYRQAPGTERELVAAISRSGGNTYYADSVKGRFTISRDNAKNTVYLQMNSLKPEDTAVYYCAARQKGTGNYWGQGTQVTVSS | high polyreactivity
12 | QVQLVESVGGLVQAGGSLRLICAASGSTIFYNAMGWYRQAPGKERELVAAISWSGGRTYYADSVKGRFTISRDNAKNTVYLQMYRLKPEDNAVYYCNTVVSKYYKVGFGSWGQGTQVTVSS | high polyreactivity
13 | QVQLVESVGGLVQAGGSLRLSCAASGFIFRKYVMGLYIQAPGKERELVAAITRSCTSTYYADSVKGRFTISRDNAKNTVYLQMNSLKPEDTAVYYCNVGSDGWYYWGQGTQVTVSS | low polyreactivity
14 | QVQLVESVGGLVQAGGSLRLSCAASGFIFWDNAMGWYRQAPGKERELVAAISKSGTRTYYADSVKGRFTISRDNAKNTVYLQMNSLKPEDTAVYSCAAEGSGYEYYYWGQGTQVTVSS | high polyreactivity
15 | QVQLVESVGGLVQAGGSLRLSCAASGFIQGAYAMGWYRPAPGKERELVAAITSSGGSTYYADSVKGRFTISRDNAKNTVYLQMNSLKPEDTAVYYCNTVYVYGPEYDYWGQGTQVTVSS | high polyreactivity
16 | QVQLVESVGGLVQAGGSLRLSCAASGFIVSTYAMGWYRQAPGKERELVAAITNSGGSTYYADSVKGRFTISRDNAKNTVYLQMNSLKPEDTAVYYCARRRSYRDNYWGQGTQVTVSS | high polyreactivity
17 | QVQLVESVGGLVQAGGSLRLSCAASGFTFGRYAMGWYRQAPGKERELVAAISFSGGRTYYADSVKGRFTISRDNAKNTVYLQMNSLKPEDTAVYYCAARRRQEHVGRSSYARYDYWGQGTQVTVSS | high polyreactivity
18 | QVQLVESVGGLVQAGGSLRLSCAASGFTFRHYVMGWYRQQPGKERELVAAIDVRGGSTYYADSVKGRFTISRDNAKNTVYLQMNSLKPEDTAVYYCAKRLIPRLPNLQKMDYWGQGTQVTVSS | low polyreactivity
19 | QVQLVESVGGLVQAGGSLRLSCAASGFTFVSNAMGWDRQEPGKERELVAAISTGGRTYYADSVKGRFTISRDNAKNTVYLQMNSLKTEDTAFYYCNARYGLRYVRYGEMDYWGQGTQVTVSS | high polyreactivity
20 | QVQLVESVGGLVQAGGSLRLSCAASGFTFYGYAMGWYRQAPGKERELVAAITSGGITNYADSVKGRFTISRDNAKNTVYLQMNSLKPEDTAVYYCNVKRRVSGYYGYKYYYWGQGTQVTVSS | high polyreactivity
21 | QVQLVESVGGLVQAGGSLRLSCAASGFTFYRYAMGWYRQAPGKERELVAAISWSGGSTYYADSVKGRFTISRDNAKNTVYLQMNSLKPEDTAVYYCAARGGYYDYYYWGQGTQVTVSS | high polyreactivity
22 | QVQLVESVGGLVQAGGSLRLSCAASGGIFWVYAMGWYRQAPGKERELVAAISNSDTSTSYADSVKGRFTISRDNAKNTVYLQMNSLKPEDTAVYYCNADSPSLSGDYWGQGTQVTVSS | low polyreactivity

Row | Sequence | polyreactivity (PSR sort gate)
23 | QVQLVESVGGLVQAGGSLRLSCAASGITFAWYALGWYRQAPGKERELVAAITWSGDSTYYADSVKGRFTISRDNAKNTVYLQMNSLKPEDTAVYYCAAAYFSSGYKYYYWGQGTQVTVSS | high polyreactivity
24 | QVQLVESVGGLVQAGGSLRLSCAASGITFDKYAMGWYRQATVKERELVAAISGSDGSTYYADSVKGRFTISRDNAKNNVYLQMNSLKPEDTAVYYCAAESEYAGTYEYDYWGQGTQVTVSS | low polyreactivity
25 | QVQLVESVGGLVQAGGSLRLSCAASGLILANYAMGWYRQAPGKERELVAAISSSGGSTYYADSVKGRFTISRDNAKNTVYLQMNSLKPEDTAVYYCAKAYRGGSAGKSYYYWGQGTQVTVSS | high polyreactivity
26 | QVQLVESVGGLVQAGGSLRLSCAASGLMFWYYTMGWYRQAPGKERELVAAIRSGGSTNYADSVKGRFTISRDNAKNTVYLQMNSLKPEDTAVYYCAARKWHSAYDYWGQGTQVTVSS | high polyreactivity
27 | QVQLVESVGGLVQAGGSLRLSCAASGLTFNHYAMGWYRQAPGKEMELVAAISKSGSSTYYADSVKGRFTISRDNAKNTVYLQMNSLKPEDTAVYYCAARSWDPALYDYWGQGTQVTVSS | high polyreactivity
28 | QVQLVESVGGLVQAGGSLRLSCAASGNTFHTNAMGWYRQAPGKERELVAAITGGGSTYYADSVKGRFTISRDNAKNTVYLQMNSLKPEDTAVYYFNTDVPYGLDVSDTIDYYYWGQGTQVTVSS | low polyreactivity
29 | QVQLVESVGGLVQAGGSLRLSCAASGNTFYVNVMGWYRQAPGKEREFVAAITWIGGSTYYADSVKGRFTISRDNAKNTVYLQMNSLKPEDTAVYYCAADVYNRWWWRAYDYWGQGTQVTVSS | high polyreactivity
30 | QVQLVESVGGLVQAGGSLRLSCAASGRIFPVYAMGLYRQAPGKERELVAAISKRDGSTSYADSVKGRFTISRDNAKNTVYIQMNSLKPEDTAVYYCNARNHVQVLFRRDYWGQGTQVTVSS | low polyreactivity
31 | QVQLVESVGGLVQAGGSLRLSCAASGRIFWGYDMGWYRQAPGKEREFVAAISSGGGRTYYADSVKGRFTISRDNAKNTVYLQMNSLKPEDTAVYYCNADSGSYWVPRGYEYWGQGTRVTVSS | low polyreactivity
32 | QVQLVESVGGLVQAGGSLRLSCAASGRIFYVYVMGWYRPAPGKERELVAAISKRGDNTYYSDSVKGRFTISRDNAKNTVYLQMNSLKPEDTAVYYCNVKRYCGRSDYWGQGTQVTVSS | high polyreactivity
33 | QVQLVESVGGLVQAGGSLRLSCAASGRILKRNAMGWYRQAPGKERELVAAISWSTGTTYYADSVKGRFTISRDNAKNTVYLQMKSLKPEDTAVYYSAKQIVSGRRVDRNDYWGQGTQVSVSS | low polyreactivity
34 | QVQLVESVGGLVQAGGSLRLSCAASGRTFDYYALGWYRQAPGKERELVAAISSSGGRTYYADSVKGRFTISRDNAKNTVYLQMNSLKPEDTAVYYCNAVVSRNYEYWGQGTQVTVSS | high polyreactivity
35 | QVQLVESVGGLVQAGGSLRLSCAASGRTFFKYAMGLYRQAPGKERELVAAITGRGGSTYADSVKGRFTISRDNAKNTVYLQMNSLKPEDTAVYYCAKVYQRGAQYYYYKYDYWGQGTQVTVSS | high polyreactivity
36 | QVQLVESVGGLVQAGGSLRLSCAASGRTFGRYAMGWYRKAPGKERELVAAINRGGSTKYADSVKGRFTISRDNAKNTVYFQMNSLKPEDTAVDYCAKDRHPALHYDYWGQGTQVTVSS | low polyreactivity
37 | QVQLVESVGGLVQAGGSLRLSCAASGRTFLRYAMGWYRQAPGKERELVAAISWSGGRTYYADSVKGRFTISRDNAKNTVYLQMNSLKPEDTAVYYCNKVVLYGAHYYYWGQGTQVTVSS | high polyreactivity
38 | QVQLVESVGGLVQAGGSLRLSCAASGRTFSEYAMGWYRQAPGEERELVAAITSTGGITYYADSVKGRFTISRDNAKNTVYLQMNSLKPEDTAVYYCAARAYTWGPAGQVDKYYYWGQGTQVTVSS | high polyreactivity
39 | QVQLVESVGGLVQAGGSLRLSCAASGRTFSRFAMGWYRKAPGKERELVAAISYSGGRTYYADSVKGRFTISRDNAKNTVYLQMNSLKPEDTAVYYCAASWPGDTVDYDYWGQGTQVTVSS | high polyreactivity
40 | QVQLVESVGGLVQAGGSLRLSCAASGRTFYHYAIGWYIQAPGQERELVAAITYRGGNTYYADSVKGRFTISRDNAKNTVYLQMNRLKPEDTAVYYCAKQGVRRHYGYDYWGQGTQVTVSS | high polyreactivity
41 | QVQLVESVGGLVQAGGSLRLSCAASGRTFYQYALGWYRQAPGKERELVAVINGGGSTNYADSVKGRFTISRDNAKNTVYLQMNSLKPEDTAVYYCNADGRRGRYDYWGQGTQVTVSS | low polyreactivity
42 | QVQLVESVGGLVQAGGSLRLSCAASGRTFYYYTMGWYRQAPGKEWELVAAISSTGNTYYADSVKGRFTISRDNAKNTVYLHMISLQPEDTAVYYCAALGYVKLLAQAYEYWGHGTQVTVSS | high polyreactivity
43 | QVQLVESVGGLVQAGGSLRLSCAASGRTLYPNAMGWYRQAPGKERELVASISWSGVSTYYADSVKGRFTISRDNAKNTVYLQMNSLKPEDTAVYYCNAVGYWSDGLVWYEGDYWGQGTQVTVSS | low polyreactivity
